The series can be described thus: soluble on expression in E. coli; label from the status in PepcDB or PDB records.
Take “MRMTLAVHTRQYSIHSFNPSAPIPSKVFAEEVYFICKTEEGLTLVVSSELALDSLEQETNWSCLEVLGPLGFSLTGILSKIASTLADVQISIFALSSFDTDYILVKKDCLQNAMTALKKAGYKIIESKLEHHHHHH”: the “soluble on expression in E. coli” value is on record as “not soluble”.

Consider “MRNFDLIRLTEAQWHDRESAHQLRADRLTADHMKRRRAGISHPVYDFLFEYYPVRVAHMKKWHPGVGVGIEGNPPHSRWKGYTTIDDVTVVDVEALKKKRSSTLHYVSNLLKQTQLNPTHFDCFGLHEWAMVYQTSQPRHALPLRLGAQGSNKVVESHNIRCTHFDAFRFFTEPAVPLNFQVLTRENQPSCEQPGCLHAMMDLYKWSAKLGPLIPGDLWLDTFELAWDCRVLDMEASPYDCTDYGLGIVPIETAEGKAEYVRRQRELSERGQLLRQRLVAELDRIDRFTLTS”, for which the “soluble on expression in E. coli” value is “not soluble”. For “MRNILATILLVVMLFLVACTGNNNQLVSQSELVPENTPVDGNQIKAPEETLSSDSMYSDYNGKNIKFRFPKTWEMTEYQADYEYFIRFNLPTKNKNRAPNQVTIVISDMAEKSKNFDYQNKNIFEQYIENDNTMDISNITVDGCNGYKAVSIESETLYISFEKGDLRYDLIFMSDEGEFLELLPEVESMISSISTY”, the “soluble on expression in E. coli” value is “not soluble”. Consider “MRNLLQKCFKWQWLVCLAVGCCFSSCKDDEESTSGYDPNKPIVLTDFYPPEGKLATQVILNGSNFGDSKENVKVFFNDKEASVISVKDDRMLVLAPKRASTIEDPECVVKVQVHEQIEEYKQTFDYYIQTTVTTLVGGSTSAQVNPTGTIPLSEAQFRANIDRCICVDQDKNVFFLVDNDGKFAAFMLNEEADKLISLKSDINALFNSPVLGYNSKDDIVYQFWANRDSHEVYYFDPKTDYAPTTAISSISWDDPNFPNIEGFGVWAAKCNFTMGPDGKMYSRMLGGNLVRIDVENARGENLTNGDLVGTKDGSAYGLVFDPQDENVFYFSNNDKHCIYKYDLRTKECACWAGQEGKSGYLDGPIGQAMFNKPGQMCVDSEGNIILTDTENHCIRKITMSTGYVSTLAGKPQNSGYVNGSAEDAQFKKPLGICIDNDDVMYIGDSENRAIRRLAVELEHHHHHH”, for which the “soluble on expression in E. coli” value was “soluble”.

Regarding “MRNPENVLNSLSKHSGNLNYKFERLYRVLFNEEMFYVAYQNIYSKTGNMTAGADGKTIDGMSIDRVEQLIGSLKNETYQPNPSKRTYIPKKNGKKRPLGIPSFDDKLVQEVVRMILEAIYEGSFEHTSHGFRPKRSCHTALIDIQKTFTAVKWFIEGDIKGFFDNINHDVLINILRERIADERFLRLIRKFLNAGYVEDWVFHRTYSGTPQGGIISPILANIYLDKFDKYIKEYINRFNKGVTRKGDARYKLYEQRRYRLAKKLKNEKDVKVRKQMTAEIKRLREERNNYPARNEMDSSIKRLKYVRYADDFLIGITGNLEDCKTVKEDIKNYLNEALKLELSDEKTLITNAQKPAKFLGYDVFIRRCNDLRKDKYGKTVRAFGHKPVLYLNFETMRKKLFDYKAARIAVVNGKEVWKSIVRTYMLNLDDLEIVSQFNAEIRGFYNYYSIANNSYVINSFYHIMSYSMYKVFANKYKSSVKKILLKYKKNKVFQVAYENSKGKTLYQSFYHDGFKRKKVAGNIYCDTIPRTVSITGGRNSLMERLKLQVCELCGATDKLEMHHVRKLKDLKGKSDWEKKMIARRRKTLAVCSKCHAKIDPDRRIRLNLEHHHHHH”, the “soluble on expression in E. coli” value is “soluble”.

As to “MRPFILLALLVSVTVAFNIFRDEVVPEEQLLAVRRTTRDASDSSSDSDEKDDAKTTVTVSFGLSGSQAWPIFQFFSFALKTKKKSKFFRRSGYELRPRP”, the “soluble on expression in E. coli” value is “not soluble”. As for “MRPLKVALVNIPLRVPGSDAWISVPPQGYGGIQWVVANLMDGLLELGHEVFLLGAPGSPAGRPGLTVVPAGEPEEIERWLRTADVDVVHDHSGGVIGPAGLPPGTAFISSHHFTTRPVNPVGCTYSSRAQRAHCGGGDDAPVIPIPVDPARYRSAADQVAKEDFLLFMGRVSPHKGALEAAAFAHACGRRLVLAGPAWEPEYFDEITRRYGSTVEPIGEVGGERRLDLLASAHAVLAMSQAVTGPWGGIWCEPGATVVSEAAVSGTPVVGTGNGCLAEIVPSVGEVVGYGTDFAPDEARRTLAGLPASDEVRRAAVRLWGHVTIAERYVEQYRRLLAGATWK”, the “soluble on expression in E. coli” value is “soluble”. In the case of “MRPNYTVSSSGTNKGSVLAVCNTTYYKSNKLISKNEITLYKGFRSLSTNHKIETIVHEFGHGFGLGHVKTKNAIMLDKGFINKTKPQTDDFNGIKALYKLEHHHHHH”, the “soluble on expression in E. coli” value was “not soluble”. Take “MRREERNMDKLLISFLLSLFMVYFPPSDVVLPSQFEASTDSYVPMSSYPQETQSAKTPSPGSMHPAELIKEYSPLAQSVRQLSVKPLDEPLINRLEKALAVPVKYQSNYLRILEHHHHHH”: the “soluble on expression in E. coli” value is recorded as “not soluble”. In the case of “MRREIRRICGFDVSDRWINLFRKKHGIRYFSGRRHADKKDKTIILSALDVTKMKTTNFLKKRRILRTSRKEYADVDLQVNKEIVRRQNKGERLTNPWIKEYAQYVAYQLHPEIPDIAKFFDANWLYRFKRRYCVELKVALNDFLYDLNSIFQPRSPEENTRSTPQTTSNEDIKSSATSMEVVTSPNYLFPHHYFNLFDQNGCGASIVKQEPTREN”, the “soluble on expression in E. coli” value is recorded as “not soluble”. As for “MRRGNRRTPGPVCRQAFRAEFTAIHAPVVFFMSCNRQIVRSLRQQIPSFECVPGCHDCCGPVTTSPEEMSRLPRKTAAEQEAAMDELNCVHLGPNGCTVYDERPLICRLFGTTPSLPCPNGRRPVEMIHPRVEKQIHDYMASTRQVLVLEHHHHHH”, the “soluble on expression in E. coli” value is given as “not soluble”.

“MRRIAIVGGGQAGLPLAFGLLDKGYEVTVVSNRTPDDIRRGKVMSSQCMFDPALQIERELGINGWEADCPPVEGIGFAVPHPEQAGAKAIEWSARLDRPAQSVDQRVKMPAWLEQVQARGGRLLLQDAGIAELEALAQSHDLVILAAGKGEVVKLFERDAARSPFDKPQRALALTYVHGLEPAPDYSRVAFNLIPGVGEYFVFPALTLSGPCDIMVFEGVPGGPLDCWRDVRTPQEHLAASRRFLQTYLPWEADRARNVELTDDKGILAGAFAPTVRKPVMTLPSGRLVFGLGDAVVTNDPITGQGANNATKACKVYLDAILARGEQPYTRDWMEATFEQFWDYAQWVVQWTNSLLTPPPPHILGLLGTAEQAPSLASTIANGFNHPPSYFPWWADAQACEGFIAQHQRTPATATALEHHHHHH”: the “soluble on expression in E. coli” value is on record as “not soluble”. Turning to “MRRLLLLVILFGCMSVINLAAGCNAQICTCPGGGYVTYGQYCPVNTPSYSAPPDAPPVDMYYFILDIKNNSYQLVDLKTKNFLTALDRSLSCDRSTQVCTVVSIREYLAVVVSEDNRLFIGKADAFYKGTGKKAEKAAIDDCKKGKEANGNGVMGDGIKGKKCRLIRLFSPNFKLENIETKQKYDLKVTGSL”, the “soluble on expression in E. coli” value is given as “not soluble”.

In the case of “MRRLNRFKAPDEKVNTLFQVYKTISFWKVVKNTVVVEFGRFFPWMGGKRNIYRACLGMKIGKKTAIAYKVMPDLFFPEKITIGENSIIGYHTTILTHEYLLSEYHVGEVVIGKNVMVGANVTILPGIEIGDGAIVAAGAVVSKDVPPESFAYGNPLVIKEKAALEHHHHHH”, the “soluble on expression in E. coli” value is recorded as “soluble”. With “MRRNSKERKNRATRRSQGSYQEIIGRTWIFRGAHRGRVTRRNIIWHELIGLRVRIVGSTHPAFVGIEGYVIDETRNMLVIAGDRIWKVPKDVCIFEFEADDGTKIKIPGERLVGRPEMRLKKRWKKWLEHHHHHH”, the “soluble on expression in E. coli” value is reported as “not soluble”. With “MRRVFSSQAIQTAIEKSLPDLQKIVGNSSVRTQESVRRQFARDESHFIAPPPAVVLEPTNVEQVSEILKLCNDRAIPVVPFGTGTGLEGGSMSTLGGICISTQQIIGDPVLREQDFVCSVKPSTTRIALNDAIKNSGLFFPVDPGADASVCGMVATSASGTNAIRYGTMKENVVNLEVVLADGTIIDTKGKGRCPRKSSAGFNFTELFVGSEGTLGIITEATVKVHPRPQFLSAAVCSFPTVHEAASTVVEVLQWNIPVARIELLDTVQIQACNSYSSLNLRESPTLFIEFHGSNEKEVADQTSAVEDICKSHEALDFDSGASPDKRATLWKARHNAYYAALAMRTGARGFTTDVCVPISKLADVISETRSDLDEHEILGTVVGHVGDGNFHVILPTIEEDKTEHRKIQSFSDRLVRRALAADGTCTGEHGIGLGKRKYLREELGENTVRLMHTIKHALDPNNIMNPGKVLPEL”, the “soluble on expression in E. coli” value is recorded as “soluble”.

Regarding “MRSMWALLSVADKRGIVDFARGLAELGFRLLATGGTYRALREAGLPVTYISDFTGFPEILEGRVKTLHPKVHAALLARPDQEEELKALGLERIGVLAVNLYPFRETVARGASFAEALEQIDIGGPAMLRAAAKNHQAVLPVCDPEDYPRVLEALKAGPSPDFRQKLARKAFAHTALYDAAIAEWLSGEKFPEEKLLALRREASLRYGENPHQEAALYRVVGERGPLLEAQVLQGKAMSFNNYLDAEAAWNLVSEFAEPACVAVKHQNPCGVALGETPLEAYRKAYEADPVSIFGGIVAFNRPLDGPTAEALAEVFLEVVLAPSFSPEARAVLARKKNLRLLQVPFPAQGPYLDLRRLRGGVLLQDADTEDPAEPKVVTERAPTPEEWPDLRFAWKVVKHVRSNAIVVAKGGMTLGIGVGQTNRLAAARHALEAAGERAKGAVLASDAFFPFDDVVRLAASYGIAAIIQPGGSVRDQDSIRAAEEAGIAMVFTGVRHFRH”, the “soluble on expression in E. coli” value was “soluble”. As for “MRSRPTEGNLLVSIGIPFLNPGPYLDLAVRSVFAQTYLNWELILVDDGSTDGSYERAVAIQDPRVRVLRDGQNKGLPARLNEIVRLAKGELVARMDADDAMHPLRLEKQVGFLQANPELDGVTTGAYLIDAEDRPIALLPGRQPSAQEVLARGGFLHPSLLARKSWFEAHPYSLDYPRAEDRELFVRTFKTSRLHVLSEPLYFYRWFGVPRGKTLRIGYRSERKVMWKYGPNLVGWGPSLRLIALSFGKELLTWFLEWTHLEKGFQTRRAFQPLLEMDQREALRTLKVIRETCVPGWDLEHHHHHH”, the “soluble on expression in E. coli” value was “not soluble”. For the sequence “MRSVTLPLLMFCLGLAACSGDGGRRPSTCEVISPPDVMVPTEQNRQRVEQQSSGDPTAGQKPVECP”, the “soluble on expression in E. coli” value is given as “not soluble”.

For “MRTIDDRIVHSLNTTVPTASFSGKVDATQTCKELYESLMEAHLSRDKAIKSCIKETSAVVSQLREERAKDSDNLSVIKQLRKEQTKLKLMQSELNVEEVVNDRSLKVFNERCRIHYTPPKIK”, the “soluble on expression in E. coli” value is “soluble”. As to “MRTIKLIIAYDGTAYAGFQRQPNGITIQQRLEEALRAVTGEPDLRIGAAAGRTDAGVHARGQVVHLRTYATIPIDRWPAALNGHLPDDIAVIGAEEAPPDFHARYWAREKRYRYTFCLSPYRLPMARLYSYHWHRPVDVDAMRRAAALLVGRHDFAAFRATGGSARTTVRTITRLTLTEEPPFLHLDVTADGFLYNMVRIIAGTLLEVGAGRRSLDRVAQALRHGRREDAGRTLPPHGLCLEEVVYGDGPSIPPWAAEAAPDVDLEP”, the “soluble on expression in E. coli” value is “soluble”.

Regarding “MRTIYVIGIGTGSPEFLTLQAISGLRHAQAIVALDKGEQKSDLLALRQKIVDTHAPGTPIYAVTDPERDRNPDNYEEEVRRWHAERAHLLASTIRERTPDDGAVAFLVWGDPSLYDSTLRIIEHMRNLEDLHADVKVIPGITAVQVLTAEHGILINRIGEAIHITTGRNLPETSAKDRRNCVVMLDGKTAWQDVATEHTYMWWGAFLGTEQQVLRKGYVHEIGAQVAELKQQLRTEHGWIMDTYLLRELD”, the “soluble on expression in E. coli” value is “soluble”.

As to “MRTMKAPSMGATVEVLSFLQPVTRELVHRSSIAEVFVTDGVRTGENAFSVGAQWPRDHALYHPDENGLNDPLLFAETLRQAHFYGAHTYFGVPVGSRFIGQDVSFEITDPTALRVGAAPLAVVLNGTWTEERDRRGRPAGARLDVTLTVDGRPCGRGHTRGLMLDDRRYRLLRGRPAASGEVSPPRPAPDARIARPNRVGRLRWKDCVLERDRPDQDWRLRVDRDHAVLFDHPTDHVPLMVMLEGFRQLGHLTVHEASRRTLGDRAFALAGLSLDCAAFGELGETILLSLEKGPSEGVPTEECALRVAAHQGERLLARADMTWKCVGSRAPWSRFASWLEHHHHHH”, the “soluble on expression in E. coli” value is given as “not soluble”.
